Experimental findings from patent US20210079071A1 (published 2021) are described below.

Assay [1] deals with vWbp peptide vWbp(1-12), […], unconjugated (Staphylococcus aureus). Briefly: ELISA, unconjugated peptide. (An ELISA detects its analyte on a solid surface through an enzyme-linked reagent.)
The target of assay [2] is vWbp peptide vWbp(1-12) conjugated to ovalbumin (Staphylococcus aureus). The assay is described as follows: ELISA: purified GMA-2500 on vWbp peptide-ovalbumin, A490.
For assay [3], the target named is T1, vWbp-(1-263) (Staphylococcus aureus).
T1 chain: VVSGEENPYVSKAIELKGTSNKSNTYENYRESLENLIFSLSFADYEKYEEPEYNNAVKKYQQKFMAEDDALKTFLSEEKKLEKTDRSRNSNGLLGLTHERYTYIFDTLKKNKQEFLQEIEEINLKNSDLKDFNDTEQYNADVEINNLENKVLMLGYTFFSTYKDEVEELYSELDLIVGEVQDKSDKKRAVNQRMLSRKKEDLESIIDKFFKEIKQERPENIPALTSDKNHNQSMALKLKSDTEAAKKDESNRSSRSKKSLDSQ
The assay is described as follows: ELISA: purified GMA-2500 on the preparation 'vWbp 1-263 022109, RIF 0540E', A490.

The target of assay [4] is T1, vWbp-(1-263). The assay is described as follows: ELISA: purified GMA-2500 on the preparation 'vWbp 1-263 WT 011113, RIF0540D', A490.
For assay [5], the target named is T2, BODIPY-labeled staphylocoagulase SC (S7C)(1-325) (Staphylococcus aureus, UniProt P17855 27-351).
T2 sequence: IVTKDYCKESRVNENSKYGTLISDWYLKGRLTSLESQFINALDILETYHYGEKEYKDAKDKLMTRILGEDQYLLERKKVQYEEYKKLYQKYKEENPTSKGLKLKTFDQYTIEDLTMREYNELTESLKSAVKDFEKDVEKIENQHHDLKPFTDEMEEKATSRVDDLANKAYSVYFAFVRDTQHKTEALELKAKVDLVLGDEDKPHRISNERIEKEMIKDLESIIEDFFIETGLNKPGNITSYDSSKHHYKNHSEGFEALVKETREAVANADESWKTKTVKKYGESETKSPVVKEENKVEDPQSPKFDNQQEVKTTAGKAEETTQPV

Assay [6] deals with T3, Staphylocoagulase fragment SC(1-246), unlabeled (Staphylococcus aureus, UniProt P17855 27-272).
T3 sequence: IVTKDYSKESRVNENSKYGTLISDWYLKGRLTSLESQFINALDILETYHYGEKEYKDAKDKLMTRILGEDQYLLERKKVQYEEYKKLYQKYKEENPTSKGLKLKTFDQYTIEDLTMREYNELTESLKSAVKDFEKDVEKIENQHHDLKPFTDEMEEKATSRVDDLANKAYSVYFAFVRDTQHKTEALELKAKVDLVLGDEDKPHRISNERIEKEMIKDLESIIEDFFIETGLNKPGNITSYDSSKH

Assay [7] concerns the target Mutated Peptide Ala 8 & 9 (Staphylococcus aureus). The assay is described as follows: solid phase competitive inhibition ELISA.
The target of a further assay is Mutated Peptide Ala 8 (Staphylococcus aureus). The assay is described as follows: solid phase competitive inhibition ELISA.
The next assay deals with Mutated Peptide Ala 9 (Staphylococcus aureus). Briefly: solid phase competitive inhibition ELISA.
Assay [8] has as its target T2, BODIPY-labeled staphylocoagulase SC …. Briefly: fluorescence titration of BODIPY-SC(S7C)(1-325) with GMA-2105.
For assay [9] the target is unchanged. The assay is described as follows: equilibrium titration in solution, increase in BODIPY fluorescence.
The next assay has as its target T4, vWbp-(1-474) (Staphylococcus aureus).
T4 chain: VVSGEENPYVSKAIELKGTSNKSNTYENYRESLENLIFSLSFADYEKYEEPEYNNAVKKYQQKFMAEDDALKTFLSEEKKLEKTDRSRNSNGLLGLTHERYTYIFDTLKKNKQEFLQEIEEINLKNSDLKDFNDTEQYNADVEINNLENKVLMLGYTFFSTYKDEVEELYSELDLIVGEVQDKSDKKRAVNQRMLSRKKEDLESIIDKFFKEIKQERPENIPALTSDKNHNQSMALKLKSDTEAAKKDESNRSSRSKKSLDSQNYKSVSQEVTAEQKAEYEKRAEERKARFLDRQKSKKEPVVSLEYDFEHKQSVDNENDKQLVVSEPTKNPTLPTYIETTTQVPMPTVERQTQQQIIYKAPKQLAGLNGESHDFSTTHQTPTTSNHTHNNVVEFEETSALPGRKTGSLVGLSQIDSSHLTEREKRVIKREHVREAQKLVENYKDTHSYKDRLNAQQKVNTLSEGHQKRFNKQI
The assay is described as follows: Western blot of recombinant proteins, probed with GMA-2105. A general note: In western blotting, separated proteins are transferred to a membrane and probed.

The target in assay [10] is T1, vWbp-(1-263). The assay is described as above.
Assay [11] concerns the target T2, BODIPY-labeled staphylocoagulase SC …. The assay is described as follows: fit of the fluorescence titrations; row 'Probe SC(1-246) S7C-BodipyFL'.
Assay [12] has the same target. Briefly: equilibrium titration in solution, increase in BODIPY fluorescence, quadratic binding equation.
Assay [13] deals with T3, Staphylocoagulase fragment SC(1-246), …. Briefly: competitive displacement of BODIPY-labeled staphylocoagulase from GMA-2105 in solution, fluorescence.
A further assay has as its target T5, SC-(1-325), unlabeled (Staphylococcus aureus, UniProt P17855 27-351).
T5 sequence: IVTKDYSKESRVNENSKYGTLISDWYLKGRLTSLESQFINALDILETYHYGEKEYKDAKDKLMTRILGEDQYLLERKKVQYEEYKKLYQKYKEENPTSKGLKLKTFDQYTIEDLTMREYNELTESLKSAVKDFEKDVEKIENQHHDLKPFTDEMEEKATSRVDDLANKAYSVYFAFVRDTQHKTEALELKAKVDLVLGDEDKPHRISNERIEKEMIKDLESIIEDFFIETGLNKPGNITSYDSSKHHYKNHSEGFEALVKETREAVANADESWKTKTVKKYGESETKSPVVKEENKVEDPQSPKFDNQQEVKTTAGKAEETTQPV
Briefly: Western blot of recombinant proteins; by the text, primary antibody at 10 µg/mL, HRP anti-mouse IgG, chemiluminescence.

Assay [14] deals with T2, BODIPY-labeled staphylocoagulase SC …. Briefly: fluorescence titration of BODIPY-labeled SC(1-325) with chimeric GMA-2105.

One may read the EC50 (read off the curve) as the concentration at which the effect is half-maximal. High values mean lower potency in that assay, low ones higher potency in that assay. For orientation: Kd means a measure of binding affinity in units of concentration.

Read-outs that look alike come from different tables or passages of the source.

Text for SC-(1-325), unlabeled: The elaborated proteins were transferred to PVDF membrane for western blot analysis to probe the specificity and cross-reactivity of the monoclonal antibodies targeting the critical N-termini of either SC or vWbp. […] Following primary antibody treatment, blots were washed and probed with horseradish peroxidase-labeled rabbit anti-mouse IgG that lacked the constant region and then imaged for chemiluminescence substrate oxidation using a Fuji-Films LAS1000. The blot was stripped between primary antibody challenges. […] To accomplish this, the blot was probed with the both the SC and vWbp neutralizing antibodies and then stained for total mouse IgG content using an anti-mouse IgG (H+L)-FITC polyclonal antibody.

B1: GMA-2500 murine anti-vWbp monoclonal antibody (antibody, V domains shown)
VH: EVQLQQSGTVLARPGASVKMSCKTSGYSFTSYWIHWVKQRPGQGLEWIGAISPGNSDTNYNQNFKGKAKLTAVTSASTAYMELSSLTTEDSAVYYCATGSHYWGQGTTLSVSS
VL: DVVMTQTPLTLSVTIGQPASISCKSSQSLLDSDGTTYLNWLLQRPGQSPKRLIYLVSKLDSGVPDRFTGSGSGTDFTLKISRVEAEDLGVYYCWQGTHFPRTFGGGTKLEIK
notes: also called 10C9.D1.B6
As for B1, in [1], the binding result is “binds”. Besides, the “EC50 (read off the curve)” value (in assay [2]; with vWbp-(1-263) [3]; with vWbp-(1-263) [4]) was approximately 0.1 µg/mL each time.

B2: GMA-2105 murine anti-staphylocoagulase monoclonal antibody (antibody, V domains shown)
VH: EVKLEESGGGLVQPGGSMKLSCAASGFTFSDAWMDWVRQSPEKGLEWVAEIRTKANNHATYYAESVKGRFTISRDDSKSSVYLQMNSLRAEDTGIYYCTNVYYGNNDVKDYWGQGTSVTVSP
VL: DIVMTQSQKFMSTSVGDRVSVTCKASQNVDIYVAWYQQKPGQSPKALIYSASYRFSGVPDRFTGSGSGTDFTLSISNVQSEDLAEYFCQQYNNYPYTFGGGTKLEIKR
notes: also called 2A1.5H4.B7; anti-SC Ab
As for B2, the Kd stood at 0.99 nM in assay [5]; 0.71 nM in [6]; 1.09 nM in assay [11]; 2 nM in assay [12]; 4 nM in assay [13]. Moreover, the “Stoichiometry (mol mAb / mol wild type)” value in assay [6] worked out at 1.2 mol mAb / mol wild type. Moreover, the binding result in assay [7] is listed as “binds”; with Mutated Peptide Ala 8 it was “binds”; with Mutated Peptide Ala 9, “binds”; with vWbp-(1-474) it was “no binding (tested: 10 µg/mL (from the text))”; in the assay with vWbp-(1-263) [10], “no binding (tested: 10 µg/mL (from the text))”; in the assay with SC-(1-325), unlabeled it was “binds”. The figures for the stoichiometry in assay [8] and in assay [9] were 2 mol staphylocoagulase/mol GMA-2105 and 1.6 mol BODIPY-SC/mol GMA-2105, respectively. Moreover, in assay [11], the “Stoichiometry (mol mAb / mol probe)” value is 0.99 mol mAb / mol probe.

B3: Chimeric GMA-2105 (mouse variable regions on human constant regions) (antibody, V domains shown)
VH: EVKLEESGGGLVQPGGSMKLSCAASGFTFSDAWMDWVRQSPEKGLEWVAEIRTKANNHATYYAESVKGRFTISRDDSKSSVYLQMNSLRAEDTGIYYCTNVYYGNNDVKDYWGQGTSVTVSP
VL: DIVMTQSQKFMSTSVGDRVSVTCKASQNVDIYVAWYQQKPGQSPKALIYSASYRFSGVPDRFTGSGSGTDFTLSISNVQSEDLAEYFCQQYNNYPYTFGGGTKLEIKR
On to B3, for which, in assay [6], the Kd turned out to be 0.75 nM and the “Stoichiometry (mol mAb / mol wild type)” value stood at 1.35 mol mAb / mol wild type. Also, the stoichiometry in [14] is 2 mol staphylocoagulase/mol chimeric antibody. In assay [11], the Kd turned out to be 0.79 nM and the “Stoichiometry (mol mAb / mol probe)” value turned out to be 0.94 mol mAb / mol probe.
